Publication PMC5571166, “Mapping the key residues of SufB and SufD essential for biosynthesis of iron-sulfur clusters” (Scientific Reports, 2017)

T1: SufB (wild type) (Escherichia coli, UniProt P77522 1-495)
T1 construct: SufB of the Escherichia coli sufABCDSE operon; Expressed from the cloned suf genes with no tag mentioned; The host is stated only for the variant complexes (YT2512, pGSO164-derived plasmid); One SufB per SufBCD complex (SufB:SufC:SufD 1:2:1); also called SufB subunit of the wild-type SufBCD complex; source: purified as the wild-type SufBCD complex; E. coli YT2512 (ΔsufABCDSE) from pBBR-sufAB, in …
T1 sequence: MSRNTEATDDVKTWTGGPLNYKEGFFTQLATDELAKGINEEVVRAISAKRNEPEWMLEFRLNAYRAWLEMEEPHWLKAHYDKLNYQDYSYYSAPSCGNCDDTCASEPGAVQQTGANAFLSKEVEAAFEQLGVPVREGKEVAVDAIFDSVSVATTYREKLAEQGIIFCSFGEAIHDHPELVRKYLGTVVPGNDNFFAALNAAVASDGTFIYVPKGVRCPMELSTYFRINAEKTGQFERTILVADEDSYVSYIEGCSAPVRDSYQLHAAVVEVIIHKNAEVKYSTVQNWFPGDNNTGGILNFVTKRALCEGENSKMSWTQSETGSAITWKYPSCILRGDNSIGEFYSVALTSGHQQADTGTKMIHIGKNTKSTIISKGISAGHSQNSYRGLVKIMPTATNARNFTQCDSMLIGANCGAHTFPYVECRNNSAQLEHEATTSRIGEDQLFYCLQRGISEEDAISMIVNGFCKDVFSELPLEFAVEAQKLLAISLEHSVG

B1: SufC (natural protein, Escherichia coli)
chain: MLSIKDLHVSVEDKAILRGLSLDVHPGEVHAIMGPNGSGKSTLSATLAGREDYEVTGGTVEFKGKDLLALSPEDRAGEGIFMAFQYPVEIPGVSNQFFLQTALNAVRSYRGQETLDRFDFQDLMEEKIALLKMPEDLLTRSVNVGFSGGEKKRNDILQMAVLEPELCILDESDSGLDIDALKVVADGVNSLRDGKRSFIIVTHYQRILDYIKPDYVHVLYQGRIVKSGDFTLVKQLEEQGYGWLTEQQ
notes: SufC of the Escherichia coli sufABCDSE operon; also called SufC subunit of the SufBCD complex
B2: SufD (natural protein, Escherichia coli)
chain: MAGLPNSSNALQQWHHLFEAEGTKRSPQAQQHLQQLLRTGLPTRKHENWKYTPLEGLINSQFVSIAGEISPQQRDALALTLDSVRLVFVDGRYVPALSDATEGSGYEVSINDDRQGLPDAIQAEVFLHLTESLAQSVTHIAVKRGQRPAKPLLLMHITQGVAGEEVNTAHYRHHLDLAEGAEATVIEHFVSLNDARHFTGARFTINVAANAHLQHIKLAFENPLSHHFAHNDLLLAEDATAFSHSFLLGGAVLRHNTSTQLNGENSTLRINSLAMPVKNEVCDTRTWLEHNKGFCNSRQLHKTIVSDKGRAVFNGLINVAQHAIKTDGQMTNNNLLMGKLAEVDTKPQLEIYADDVKCSHGATVGRIDDEQIFYLRSRGINQQDAQQMIIYAFAAELTEALRDEGLKQQVLARIGQRLPGGAR
notes: SufD of the Escherichia coli sufABCDSE operon; One SufD per SufBCD complex (1:2:1); also called SufD subunit of the SufBCD complex

Columns and labels:
SufD = biological target: B2; assay: SEC; SufBCD complexes co-expressed in E. coli and co-purified on Phenyl FF, Q XL and Sephacryl S-200; eluted from gel filtration at about 160 kDa; subunit composition checked by SDS-PAGE of the purified sample; settings: both partners purified
SufB (wild type) = biological target: T1, SufB (wild type); assay: as above; settings: both partners purified

| Binder | binding result (SufD) | binding result (SufB (wild type)) |
| --- | --- | --- |
| B1 | binds | binds |
| B2 | – | binds |
